Reference: doi:10.1101/2024.02.27.582253, “Identification of an evolutionary conserved binding motif responsible for the recruitment of NMD factors to the UPF1 helicase” (bioRxiv, 2024)
Values belong to the binder of their own block, whether it stands above or below them.

Target: T1, S. cerevisiae Upf1 helicase domain, Upf1-HD-His6 (residues 221-851) (S. cerevisiae, UniProt P30771 221-851)
T1 construct: Upf1 helicase domain, S. cerevisiae, residues 221-851; residues 224-851 seen in the final model; for the crystal it says only that the protein was purified on TALON resin; source: E. coli BL21 (DE3) Gold, purified (TALON, heparin, SEC); not shown: His6, C-terminal, kept
T1 sequence (looked up): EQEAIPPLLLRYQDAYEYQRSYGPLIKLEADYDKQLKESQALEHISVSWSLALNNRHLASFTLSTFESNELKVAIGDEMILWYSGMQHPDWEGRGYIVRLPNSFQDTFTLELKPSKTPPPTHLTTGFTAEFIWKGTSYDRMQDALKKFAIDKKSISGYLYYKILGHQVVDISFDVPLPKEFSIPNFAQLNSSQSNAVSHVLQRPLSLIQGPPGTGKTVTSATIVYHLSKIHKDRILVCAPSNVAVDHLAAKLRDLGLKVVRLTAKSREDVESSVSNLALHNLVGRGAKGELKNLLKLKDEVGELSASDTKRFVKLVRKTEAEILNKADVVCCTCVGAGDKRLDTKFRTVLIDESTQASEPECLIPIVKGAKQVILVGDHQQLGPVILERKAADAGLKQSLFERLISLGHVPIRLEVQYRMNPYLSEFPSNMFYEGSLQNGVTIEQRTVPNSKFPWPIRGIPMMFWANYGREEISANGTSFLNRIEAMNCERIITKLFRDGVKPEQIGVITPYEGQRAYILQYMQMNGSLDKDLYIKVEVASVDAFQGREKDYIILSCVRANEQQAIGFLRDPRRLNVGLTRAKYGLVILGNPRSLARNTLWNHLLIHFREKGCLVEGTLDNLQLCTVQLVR
Test: ITC; His6-ZZ-Nmd4 proteins (260 µM full-length and arm, 330 µM PIN) injected into Upf1-HD-His6 (30-35 µM); 20°C; 100 mM Bis-Tris pH 6.5, 200 mM NaCl, 5 mM MgCl2, 5 mM 2-mercaptoethanol; one-binding site model
Conditions: both partners purified

Kd: 2100 nM
B1: His6-ZZ-Nmd4 full-length protein (S. cerevisiae) (natural protein, UniProt Q12129 1-218, looked up)
chain: MTQYNFIIDASAFEKGLGNIKRWCSDCTEAVTLNFYIPTFTLNELDFLQQRRKSFAARESLKFIDRLDDSKFANLKVFIEFPEVLDIILWSDVMEHNDSSGKINIAKLPKRLKNLLKSCIYKCYLEGNEGLHWFLISEDPQIREMAMQCNIPSCSIVDVDSILSKDMNDKSFRESEKFNNMMLKNGTKEESENGREIIRTNFNKTVYASRGTGELWSP
notes: also called full-length Nmd4; His6-ZZ-Nmd4-FL; source: E. coli BL21 (DE3) Gold, purified (Ni-NTA, heparin, SEC; 3C digestion omitted); not shown: His6, N-terminal, kept; ZZ, N-terminal, kept

Kd: 1960 nM
B2: His6-ZZ-Nmd4 « arm » (residues 168-218) (domain or fragment, S. cerevisiae, UniProt Q12129 168-218, looked up)
chain: NDKSFRESEKFNNMMLKNGTKEESENGREIIRTNFNKTVYASRGTGELWSP
notes: Nmd4 C-terminal arm, S. cerevisiae, residues 168-218; also called « arm » region; source: E. coli BL21 (DE3) Gold, purified; not shown: His6, N-terminal, kept; ZZ, N-terminal, kept
